In patent US20250152727A1:
pKd: −log10 of the molar value.

Molecular target: recombinant human TfR1 (human) (UniProt P02786)
Assay: SPR (Carterra LSA), IgG captured on chip, TfR1 as analyte, 25 C

Chain of recombinant human TfR1 (human) (P02786 89-760 limits assumed): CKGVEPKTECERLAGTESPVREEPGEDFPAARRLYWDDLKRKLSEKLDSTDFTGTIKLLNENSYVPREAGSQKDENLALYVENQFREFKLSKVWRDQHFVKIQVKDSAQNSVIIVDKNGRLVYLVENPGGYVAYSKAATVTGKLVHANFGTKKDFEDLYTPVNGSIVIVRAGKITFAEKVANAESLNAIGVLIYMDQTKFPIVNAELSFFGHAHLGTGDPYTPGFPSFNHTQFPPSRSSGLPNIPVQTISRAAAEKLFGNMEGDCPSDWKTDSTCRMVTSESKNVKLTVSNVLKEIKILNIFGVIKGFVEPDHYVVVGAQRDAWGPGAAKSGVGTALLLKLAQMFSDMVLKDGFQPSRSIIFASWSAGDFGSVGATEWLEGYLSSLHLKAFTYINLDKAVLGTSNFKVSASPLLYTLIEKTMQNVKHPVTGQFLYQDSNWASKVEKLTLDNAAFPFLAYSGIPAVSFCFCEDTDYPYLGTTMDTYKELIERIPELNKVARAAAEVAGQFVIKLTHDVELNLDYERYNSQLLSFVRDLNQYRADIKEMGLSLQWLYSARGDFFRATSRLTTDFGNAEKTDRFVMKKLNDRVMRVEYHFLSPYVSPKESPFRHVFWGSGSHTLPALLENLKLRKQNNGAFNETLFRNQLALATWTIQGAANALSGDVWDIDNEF

pKd: 9.27
Substance: OKT9 mIgG (antibody)
